The experiment concerns the target Dyn A(1-11)NH2 (Rattus norvegicus). Briefly: radioligand.

B1: KOR, P34975 (protein)
chain: MESPIQIFRGEPGPTCAPSACLLPNSSSWFPNWAESDSNGSVGSEDQQLEPAHISPAIPVIITAVYSVVFVVGLVGNSLVMFVIIRYTKMKTATNIYIFNLALADALVTTTMPFQSAVYLMNSWPFGDVLCKIVISIDYYNMFTSIFTLTMMSVDRYIAVCHPVKALDFRTPLKAKIINICIWLLASSVGISAIVLGGTKVREDVDVIECSLQFPDDEYSWWDLFMKICVFVFAFVIPVLIIIVCYTLMILRLKSVRLLSGSREKDRNLRRITKLVLVVVAVFIICWTPIHIFILVEALGSTSHSTAVLSSYYFCIALGYTNSSLNPVLYAFLDENFKRCFRDFCFPIKMRMERQSTNRVRNTVQDPASMRDVGGMNKPV
Broadly, the Ki is a measure of affinity in units of concentration, obtained from inhibition or displacement. Regarding B1, the Ki came out at 2.6 nM.

(Values after paper PMC4771075.)
